Numbering of substitutions follows the chain as printed.
T1: mouse FcγRII (mouse, UniProt P08101 30-210)
T1 construct: Extracellular domain with C-terminal His tag; also called mFcγRII; mFcgRII
T1 sequence: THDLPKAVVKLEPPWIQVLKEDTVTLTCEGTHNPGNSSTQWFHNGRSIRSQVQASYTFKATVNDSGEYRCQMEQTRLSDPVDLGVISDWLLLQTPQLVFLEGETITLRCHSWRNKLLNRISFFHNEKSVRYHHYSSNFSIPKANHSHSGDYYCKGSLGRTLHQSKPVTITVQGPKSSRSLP

T2: mouse FcγRIII (mouse, UniProt P08508 31-215)
T2 construct: Extracellular domain with C-terminal His tag; also called mFcγRIII; mFcgRIII
T2 chain: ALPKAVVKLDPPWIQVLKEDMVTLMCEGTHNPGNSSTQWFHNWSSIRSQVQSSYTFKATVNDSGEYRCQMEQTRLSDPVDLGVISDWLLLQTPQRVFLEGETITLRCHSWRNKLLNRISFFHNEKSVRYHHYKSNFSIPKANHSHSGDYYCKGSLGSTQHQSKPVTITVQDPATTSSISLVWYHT

B1: MB764 (antibody, mouse IgG1, kappa)
heavy: QVQLQESGPGLVKPSETLSLTCAVSGHSISHDHAWSWVRQPPGEGLEWIGFISYSGITNYNPSLQGRVTISRDNSKNTLYLQMNSLRAEDTAVYYCARSLARTTAMDYWGEGTLVTVSSAKTTPPSVYPLAPGSAAQTNSMVTLGCLVKGYFPEPVTVTWNSGSLSSGVHTFPAVLQSDLYTLSSSVTVPSSTWPSETVTCNVAHPASSTKVDKKIVPRDCGCKPCICEPNEVELVFIFPPKPKDVLTITLTPKVTCVVVDISKDDPEVQFSWFVDDVEVHTAQTQPREEQTNSTFRSVSELPIMHQDWLNGKEFKCRVNSAAFPAPIEKTISKTKGRPKAPQVYTIPPPKEQMAKDKVSLTCMITDFFPEDITVEWQWNGQPAENYKNTQPIMDTDGSYFVYSKLNVQKSNWEAGNTFTCSVLHEGLHNHHTEKSLSHSPGK
light: not shown
notes: CH name; VH H237 + CH, L chain MRAL-k0; copies: 2 + 2
B2: MB767 (antibody, mouse IgG1, kappa)
heavy: B1 heavy with T292F, A326G
light: not shown
notes: as for B1
B3: MB773 (antibody, mouse IgG1, kappa)
heavy: B1 heavy with T292F, E329Y
light: not shown
notes: as for B1
B4: MB777 (antibody, mouse IgG1, kappa)
heavy: B1 heavy with T292F, S333I
light: not shown
notes: as for B1
B5: MB787 (antibody, mouse IgG1, kappa)
heavy: B1 heavy with Q291L, T292F, N320D, A322D
light: not shown
notes: as for B1
B6: MB783 (antibody, mouse IgG1, kappa)
heavy: B1 heavy with Q291L, T292F, A322D
light: not shown
notes: as for B1
B7: MB785 (antibody, mouse IgG1, kappa)
heavy: B1 heavy with T292F, N320D, A322D
light: not shown
notes: as for B1
B8: MB774 (antibody, mouse IgG1, kappa)
heavy: B1 heavy with T292F, E329V
light: not shown
notes: as for B1
B9: MB768 (antibody, mouse IgG1, kappa)
heavy: B1 heavy with T292F, A326Q
light: not shown
notes: as for B1
B10: MB780 (antibody, mouse IgG1, kappa)
heavy: B1 heavy with T292F, A323G
light: not shown
notes: as for B1
B11: MB776 (antibody, mouse IgG1, kappa)
heavy: B1 heavy with T292F, T331Y
light: not shown
notes: as for B1
B12: MB779 (antibody, mouse IgG1, kappa)
heavy: B1 heavy with T292F, S333W
light: not shown
notes: as for B1
B13: MB765 (antibody, mouse IgG1, kappa)
heavy: B1 heavy with T292F, N320L
light: not shown
notes: as for B1
B14: MB772 (antibody, mouse IgG1, kappa)
heavy: B1 heavy with T292F, E329N
light: not shown
notes: as for B1
B15: MB786 (antibody, mouse IgG1, kappa)
heavy: B1 heavy with T292F, A322D, K330R
light: not shown
notes: as for B1
B16: MB769 (antibody, mouse IgG1, kappa)
heavy: B1 heavy with T292F, P327D
light: not shown
notes: as for B1
B17: MB775 (antibody, mouse IgG1, kappa)
heavy: B1 heavy with T292F, T331N
light: not shown
notes: as for B1
B18: MB782 (antibody, mouse IgG1, kappa)
heavy: B1 heavy with Q291L, T292F, N320D
light: not shown
notes: as for B1
B19: MB778 (antibody, mouse IgG1, kappa)
heavy: B1 heavy with T292F, S333K
light: not shown
notes: as for B1
B20: MB771 (antibody, mouse IgG1, kappa)
heavy: B1 heavy with T292F, P327Y
light: not shown
notes: as for B1
B21: MB766 (antibody, mouse IgG1, kappa)
heavy: B1 heavy with T292F, N320M
light: not shown
notes: as for B1
B22: MB781 (antibody, mouse IgG1, kappa)
heavy: B1 heavy with T292F, A326K
light: not shown
notes: as for B1
B23: MB770 (antibody, mouse IgG1, kappa)
heavy: B1 heavy with T292F, P327F
light: not shown
notes: as for B1
B24: MB784 (antibody, mouse IgG1, kappa)
heavy: B1 heavy with Q291L, T292F, K330R
light: not shown
notes: as for B1

What follows are binders tested against T1, mouse FcγRII (assay: SPR (Biacore T200); KD of H237-MB630/MRAL-k0 / KD of variant).
Source text: (§1) The antibody H chain variable region used was the variable region H237 (SEQ ID NO: 1) of the H chain VH3-IgG1 of the anti-IL-6 receptor antibody Fv4-IgG1 described in WO2009/125825. The antibody L chain commonly used was the L chain MRAL-k0 (SEQ ID NO: 2) of the anti-IL-6 receptor antibody tocilizumab. […] These variants were expressed and purified by the method of Reference Example 1 and evaluated for their binding to mFcγRII and mFcγRIII by the method of Reference Example 2 using Biacore T200.
(§2) Each altered antibody was analyzed for its interaction with each Fcγ receptor prepared above using Biacore T100 (GE Healthcare Japan Corp.), Biacore T200 (GE Healthcare Japan Corp.), Biacore A100, or Biacore 4000. The running buffer used was HBS-EP+ (GE Healthcare Japan Corp.). The assay temperature was set to 25° C. The sensor chips used were chips prepared by immobilizing Protein L (ACTIGEN or BioVision) onto Series S Sensor Chip CM5 (GE Healthcare Japan Corp.) or Series S Sensor Chip CM4 (GE Healthcare Japan Corp.) by the amine coupling method.
(§3) In order to calculate the KD value of each altered antibody for FcγR, kinetic analysis was conducted according to the following method: first, the antibody of interest was captured onto any of these chips and allowed to interact with mFcγR diluted with a running buffer. For the obtained sensorgram, the assay results were globally fit into the 1:1 Langmuir binding model using Biacore Evaluation Software to calculate an association rate constant ka (L/mol/s) and a dissociation rate constant kd (1/s). From these values, the dissociation constant KD (mol/L) was calculated.

| Binder | Relative mFcγRII-binding activity (MB630 = 1) [fold] |
| --- | --- |
| B1 | 0.23 |
| B2 | 0.16 |
| B3 | 1.17 |
| B4 | 0.74 |
| B5 | 3.55 |
| B6 | 2.82 |
| B7 | 2.29 |
| B8 | 0.87 |
| B9 | 0.5 |
| B10 | 1.86 |
| B11 | 1.04 |
| B12 | 0.92 |
| B13 | 0.49 |
| B14 | 0.32 |
| B15 | 2.5 |
| B16 | 0.31 |
| B17 | 0.84 |
| B18 | 1.96 |
| B19 | 0.57 |
| B20 | 1.27 |
| B21 | 1.29 |
| B22 | 0.48 |
| B23 | 1.23 |
| B24 | 1.36 |

Molecular target: T2, mouse FcγRIII
Test: as above
Source text: as §1, §2, §3

| Binder | Relative mFcγRIII-binding activity (MB630 = 1) [fold] |
| --- | --- |
| B1 | 0.32 |
| B2 | 0.19 |
| B3 | 1.25 |
| B4 | 0.72 |
| B5 | 5.57 |
| B6 | 4.34 |
| B7 | 2.85 |
| B8 | 1.05 |
| B9 | 0.81 |
| B10 | 2.29 |
| B11 | 1.15 |
| B12 | 1.02 |
| B13 | 0.64 |
| B14 | 0.42 |
| B15 | 3.33 |
| B16 | 0.38 |
| B17 | 1.02 |
| B18 | 2.89 |
| B19 | 0.65 |
| B20 | 1.53 |
| B21 | 1.55 |
| B22 | 0.77 |
| B23 | 1.4 |
| B24 | 2.24 |

These binders were tested against T1, mouse FcγRII (assay: SPR (Biacore T200); KD of H237-mIgG1/MRAL-k0 / KD of variant).
Source text: as §1, §2

| Binder | relative mFcγRII-binding activity (mIgG1 = 1) [fold] |
| --- | --- |
| B1 | 2.5 |
| B2 | 1.8 |
| B3 | 12.7 |
| B4 | 9.7 |
| B5 | 38.5 |
| B6 | 30.6 |
| B7 | 24.9 |
| B8 | 9.4 |
| B9 | 5.4 |
| B10 | 20.2 |
| B11 | 11.3 |
| B12 | 10 |
| B13 | 5.3 |
| B14 | 3.5 |
| B15 | 27.2 |
| B16 | 3.3 |
| B17 | 9.1 |
| B18 | 21.3 |
| B19 | 6.1 |
| B20 | 13.8 |
| B21 | 14 |
| B22 | 5.2 |
| B23 | 13.3 |
| B24 | 14.7 |

Molecular target: T2, mouse FcγRIII
Test: as above
Source text: as §1, §2

| Binder | relative mFcγRIII-binding activity (mIgG1 = 1) [fold] |
| --- | --- |
| B1 | 0.05 |
| B2 | 0.03 |
| B3 | 0.22 |
| B4 | 0.17 |
| B5 | 0.96 |
| B6 | 0.75 |
| B7 | 0.49 |
| B8 | 0.18 |
| B9 | 0.14 |
| B10 | 0.39 |
| B11 | 0.2 |
| B12 | 0.18 |
| B13 | 0.11 |
| B14 | 0.07 |
| B15 | 0.57 |
| B16 | 0.06 |
| B17 | 0.18 |
| B18 | 0.5 |
| B19 | 0.11 |
| B20 | 0.26 |
| B21 | 0.27 |
| B22 | 0.13 |
| B23 | 0.24 |
| B24 | 0.38 |

Source: patent publication US20150203577A1 (Chugai, published 2015)
